Experimental data published in US20150087581A1 (AURIGENE DISCOVERY TECHNOLOGIES, published 2015).
Bridges are numbered along the chain shown (N, C = ends). Where no end group is shown, it is not given here. [ ]: non-standard residue; d: D form. The star is where a group is joined. Palmitoyl = CCCCCCCCCCCCCCCC(=O)*; R5 = C=CCCC[C@@](C)(N)C(=O)O; Octanoyl = CCCCCCCC(=O)*; Hexanoyl = CCCCCC(=O)*

Molecular target: hPDL1 expressed on MDA-MB231 cells (human, UniProt Q9NZQ7 19-290)
Assay: cell-based or functional assay

Sequence of hPDL1 expressed on MDA-MB231 cells (Q9NZQ7 19-290): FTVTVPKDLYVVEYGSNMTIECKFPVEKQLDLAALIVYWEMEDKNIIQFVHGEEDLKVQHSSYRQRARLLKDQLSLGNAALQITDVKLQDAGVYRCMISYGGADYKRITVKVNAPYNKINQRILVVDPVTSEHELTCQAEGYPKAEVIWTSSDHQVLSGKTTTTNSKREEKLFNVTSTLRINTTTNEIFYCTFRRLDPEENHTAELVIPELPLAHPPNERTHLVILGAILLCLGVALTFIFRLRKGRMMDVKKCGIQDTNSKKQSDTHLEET

Binder	Percent rescue (100 nM, compared with 100 nM Comp 8) in mouse splenocyte proliferation CFSE based assay [%]
SNTSESFKFRVTQLAQIKE-NH2 (not fully specified (residue 8)) [Compound 25]	27.6
SNTSESFKFRVTQLAPKAQIK(Octanoyl)E-NH2 (not fully specified (residue 8)) [Compound 46]	67
SNTSESFFRVTQKLAPKAQIKE-NH2 (not fully specified (residue 13)) [Compound 42]	52.9
Hexanoyl-SNTSESFKFRVTQLAPKAQIKE-NH2 (not fully specified (residue 8)) [Compound 16]	45.8
SNTSESFKKAQIKE-NH2 (not fully specified (residue 8)) [Compound 32]	14.8
EKIQAKPAYWNLVKDTQNS-NH2 (not fully specified (residue 14)) [Compound 14]	18
SNQTDKLAAFPEDSQPGQD-NH2 [Compound 3]	37.3
SNTSESFKFRVTQLAPKAQIKE-NH2 (not fully specified (residue 8)) [Compound 20]	27.8
Hexanoyl-SNTSESFKFRVTQLAPKAQIKE-NH2 (not fully specified (residue 8)) [Compound 21]	76.7
EKIQAKPALQTVRFKFSESTNS (not fully specified; Retro inverso (All D-amino acid); branch fsestns on the side chain of lys 15 of the main chain; C-terminal amide) [Compound 49]	73
SNTSESFKFRVTQKKAQIKE-NH2 (not fully specified (residues 8, 14)) [Compound 35]	81.2
SNTSESFKFRVTQKAQIKE-NH2 (not fully specified (residue 8)) [Compound 31]	11.3
SNTSESFKFK(Palmitoyl)VTQLAPKAQIKE-NH2 (not fully specified (residue 8)) [Compound 40]	82
SNTSESFKLAPKAQIKE-NH2 (not fully specified (residue 8)) [Compound 30]	58.8
FRVTQLAPKAQIKE-NH2 [Compound 43]	66
SNTSESFKFRVTQLAPKAQIKE-NH2 [Compound 27]	73.6
SNTSESFKFRVTQLAKQIKE-NH2 (not fully specified (residues 8, 16)) [Compound 36]	89.7
SNTSESFKFRVTQLAPKAQIKE-NH2 (not fully specified (residue 8); printed as SNTSESFK(LAP)FRVTQLAPKAQIKE-NH2) [Compound 37]	89.6
SNTSESFFRVTQLAPKAQIKE-NH2 [Compound 26]	86.6
SNTSESFKFRVTQLAP-NH2 (not fully specified (residue 8)) [Compound 41]	5.1
Ac-SNTSESFKFRVTQLAPKAQIKE-NH2 (not fully specified (residue 8)) [Compound 17]	32.9
SNTSESFKFRVTQLAPKAQIKE-NH2 (not fully specified (residue 8)) [Compound 11]	12.4
SNTSESFKSNTSESFFRVTQLAPKAQIKE-NH2 [Compound 28]	56.5
SNTSESFK-NH2 (not fully specified (residue 8)) [Compound 29]	31.1
SNTSESF[R5]PKA[R5]SNTSESF-NH2 (staple 8-12; not fully specified; printed as SNTSESFR5PKAR5SNTSESF) [Compound 22]	71.4
LAPKFRVTQLAPKAQIKE-NH2 (not fully specified (residue 4); printed as LAPK(LAP)FRVTQLAPKAQIKE-NH2) [Compound 38]	51.5
SNTSESF-NH2 [Compound 1]	96.5
SNTSESFKFRVTQLAPK(Octanoyl)AQIKE-NH2 (not fully specified (residue 8)) [Compound 45]	68
EDRSQPGQDCR-NH2 [Compound 4]	74.7
